These results are taken from patent publication US20100215655A1 (CHENGDU KANGHONG BIOTECHNOLOGIES, published 2010).

Sequences and labels used below:
B1: FP6′ (FLTd2-KDRd3-FLTd4,5-Fc) (Fc fusion, human, not shown: a dimerising Fc or GST)
chain: PFVEMYSEIPEIIHMTEGRELVIPCRVTSPNITVTLKKFPLDTLIPDGKRIIWDSRKGFIISNATYKEIGLLTCEATVNGHLYKTNYLTHRQTVVLSPSHGIELSVGEKLVLNCTARTELNVGIDFNWEYPSSKHQHKKLVNRDLKTQSGSEMKKFLSTLTIDGVTRSDQGLYTCAASSGLMTKKNSTFVRVHEKFITVKHRKQQVLETVAGKRSYRLSMKVKAFPSPEVVWLKDGLPATEKSARYLTRGYSLIIKDVTEEDAGNYTILLSIKQSNVFKNLTATLIVNVKPQIYEKAVSSFPDPALYPLGSRQILTCTAYGIPQPTIKWFWHPCNHNHSEARCDFCSNNEESFILDADSNMGNRIESITQRMAIIEGKNKMASTLVVADSRISGIYICIASNKVGTVGRNISFYIT
notes: domain: 5th Ig-like domain of FLT-1; Expressed in 293 cells; also called PF6′
B2: FP5′ (FLTd2-KDRd3,4,5-Fc) (Fc fusion, human, not shown: a dimerising Fc or GST)
chain: PFVEMYSEIPEIIHMTEGRELVIPCRVTSPNITVTLKKFPLDTLIPDGKRIIWDSRKGFIISNATYKEIGLLTCEATVNGHLYKTNYLTHRQTVVLSPSHGIELSVGEKLVLNCTARTELNVGIDFNWEYPSSKHQHKKLVNRDLKTQSGSEMKKFLSTLTIDGVTRSDQGLYTCAASSGLMTKKNSTFVRVHEKFVAFGSGMESLVEATVGERVRIPAKYLGYPPPEIKWYKNGIPLESNHTIKAGHVLTIMEVSERDTGNYTVILTNPIKSEKQSHVVSLVVYVPPQIGEKSLISPVDSYQYGTTQTLTCTVYAIPPPHHIHWYWQLEEECANEPSQAVSVTNPYPCEEWRSVEDFQGGNKIEVNKNQFALIEGKNKTVSTLVIQAANVSALYKCEAVNKVGRGERVISFHVT
notes: domain: 5th Ig-like domain of KDR; Expressed in 293 cells
B3: FP4′ (FLTd2-KDRd3-FLTd4-Fc) (Fc fusion, not shown: a dimerising Fc or GST)
chain: PFVEMYSEIPEIIHMTEGRELVIPCRVTSPNITVTLKKFPLDTLIPDGKRIIWDSRKGFIISNATYKEIGLLTCEATVNGHLYKTNYLTHRQTVVLSPSHGIELSVGEKLVLNCTARTELNVGIDFNWEYPSSKHQHKKLVNRDLKTQSGSEMKKFLSTLTIDGVTRSDQGLYTCAASSGLMTKKNSTFVRVHEKFITVKHRKQQVLETVAGKRSYRLSMKVKAFPSPEVVWLKDGLPATEKSARYLTRGYSLIIKDVTEEDAGNYTILLSIKQSNVFKNLTATLIVNVKP
notes: Expressed in 293 cells
B4: FP2′ (KDRd1-FLTd2-KDRd3-Fc) (Fc fusion, not shown: a dimerising Fc or GST)
chain: PRLSIQKDILTIKANTTLQITCRGQRDLDWLWPNNQSGSEQRVEVTECSDGLFCKTLTIPKVIGNDTGAYKCFYRETDLASVIYVYPFVEMYSEIPEIIHMTEGRELVIPCRVTSPNITVTLKKFPLDTLIPDGKRIIWDSRKGFIISNATYKEIGLLTCEATVNGHLYKTNYLTHRQTVVLSPSHGIELSVGEKLVLNCTARTELNVGIDFNWEYPSSKHQHKKLVNRDLKTQSGSEMKKFLSTLTIDGVTRSDQGLYTCAASSGLMTKKNSTFVRVHEK
notes: Expressed in 293 cells
B5: FP1′ (FLTd2-KDRd3-Fc), chimeric protein of the prior art (Fc fusion, not shown: a dimerising Fc or GST)
chain: PFVEMYSEIPEIIHMTEGRELVIPCRVTSPNITVTLKKFPLDTLIPDGKRIIWDSRKGFIISNATYKEIGLLTCEATVNGHLYKTNYLTHRQTVVLSPSHGIELSVGEKLVLNCTARTELNVGIDFNWEYPSSKHQHKKLVNRDLKTQSGSEMKKFLSTLTIDGVTRSDQGLYTCAASSGLMTKKNSTFVRVHEK

The target of the first test is T1, recombinant VEGF (vascular endothelial cell growth factor) (UniProt P15692-4 27-191, limits assumed). The experiment in a line: cell-based or functional assay.
T1 sequence (P15692 other isoform, or with tags, fused parts or gaps limits assumed): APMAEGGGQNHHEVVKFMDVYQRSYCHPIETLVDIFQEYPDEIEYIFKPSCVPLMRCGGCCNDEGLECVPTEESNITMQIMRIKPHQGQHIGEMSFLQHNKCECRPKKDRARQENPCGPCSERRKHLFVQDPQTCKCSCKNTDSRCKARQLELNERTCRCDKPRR
B1: the “IC50 of inhibition of VEGF-induced HUVEC cell growth” value lay in the range of 5 to 8 ng/mL.
With B2, the “IC50 of inhibition of VEGF-induced HUVEC cell growth” value was in the range of 5 to 8 ng/mL.
As to B3, the “IC50 of inhibition of VEGF-induced HUVEC cell growth” value lay in the range of 5 to 8 ng/mL.
Same read-out and setting: as for B4, the figure is 5 to 8 ng/mL; as for B5, around 12 ng/mL.

In a further test the target is T1, recombinant VEGF (vascular endothelial …). Kind of test: ELISA, VEGF coated on plate, anti-human Ig-HRP detection. The method, then:
Affinities of the chimeric proteins to VEGF were determined by the VEGF binding assay in the present invention. Firstly, recombinant VEGF proteins (Chemicom) were coated in a 96-well ELISA plate, and non-specific protein binding sites of the plate were then blocked using 5% milk solution. Secondly, different concentrations of various chimeric proteins were added into each well, and incubated for 2 hours at 37° C. After washing, rabbit anti-human Ig-HRP (Sigma) was added into each well, and finally colorimetric enzyme substrates were added to the plate. The absorption OD readings were recorded with the use of an ELISA plate reader. A higher OD value indicated a stronger binding affinity of the chimeric proteins to VEGF.
A general note: ELISA stands for enzyme-linked immunosorbent assay.
In the case of B1, the “concentration at which binding was detectable” value came to 1 µg/mL.
In the case of B2, the “concentration at which binding was detectable” value stood at 1 µg/mL.
On the same count and under the same terms, next, B3: 1 µg/mL; B4: 1 µg/mL.
